Assay results from publication PMC9044958.

Each substance was assayed against recombinant Fc-tagged VEGFR2 extracellular domain (VEGFR2-ECD) (UniProt P35968) (assay: SPR; Biacore 8K, single-cycle mode, 25°C, HBS-P+ buffer; Fc-tagged VEGFR2-ECD (180 nM) captured on a protein A sensor chip at about 1,400 to 1,700 RU; analytes at 1.25, 2.5, 5, 10 and 20 nM, 30 uL/min; KD from the first on and off rates of the bivalent model).
Sequence of UniProt P35968 (P35968 20-764): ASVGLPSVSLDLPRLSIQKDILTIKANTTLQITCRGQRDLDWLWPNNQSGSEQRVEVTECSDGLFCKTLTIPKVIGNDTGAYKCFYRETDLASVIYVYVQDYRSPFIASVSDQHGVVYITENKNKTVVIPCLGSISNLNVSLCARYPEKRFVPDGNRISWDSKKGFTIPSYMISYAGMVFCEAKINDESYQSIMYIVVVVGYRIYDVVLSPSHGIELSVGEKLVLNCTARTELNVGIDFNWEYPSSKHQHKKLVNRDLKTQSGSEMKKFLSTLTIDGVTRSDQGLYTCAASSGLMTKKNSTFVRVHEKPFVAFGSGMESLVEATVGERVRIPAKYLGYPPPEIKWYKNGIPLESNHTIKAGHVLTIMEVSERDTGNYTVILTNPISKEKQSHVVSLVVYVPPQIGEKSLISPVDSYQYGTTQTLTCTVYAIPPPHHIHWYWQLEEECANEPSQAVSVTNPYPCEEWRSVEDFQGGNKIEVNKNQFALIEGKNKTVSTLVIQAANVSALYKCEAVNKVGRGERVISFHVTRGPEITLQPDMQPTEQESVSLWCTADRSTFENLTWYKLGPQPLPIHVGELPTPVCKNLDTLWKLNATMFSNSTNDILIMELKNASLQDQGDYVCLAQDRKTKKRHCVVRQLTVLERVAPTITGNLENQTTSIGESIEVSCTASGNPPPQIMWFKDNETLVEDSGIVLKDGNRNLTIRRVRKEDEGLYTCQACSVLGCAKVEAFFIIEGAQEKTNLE
Substance “B. bacilliformis-derived BafA passenger domain (BafABba) (domain or fragment)” has a Kd of 91.3 nM. “B. henselae-derived BafA passenger domain (BafABhe) (domain or fragment)” was tested, and the Kd was 2.08 nM. recombinant human VEGF-A165 (ligand) gave a Kd of 6.91 nM.
